Experimental data reported in patent US20130190228A1.

Target: hemagglutinin (HA) of A/PuertoRico/8/34 (PR/8, H1N1) influenza virus (influenza A virus A/PuertoRico/8/34 (H1N1)) (UniProt P03452)
Assay: cell-based or functional assay

EB peptide (entry blocker) was tested, and the EC50 of hemagglutination inhibition (PR/8) was 2 µM, the EC50 of hemagglutination inhibition (PR/8, 64 HAU) was 2.6 µM and the plaque reduction on MDCK cells (PR/8 pre-treated with peptide) was 92%.
